Measured values from patent US20260258084A1, “New Peptides as Selective IL-23 Receptor Antagonists” (Sanofi, priority 2022, published 2026).
Starred links: 1 amine or outer side, 2 acyl side, 3 side chain; linkers in the order of their positions; H or OH if unused. Positions of bridges follow the written chain, without caps; N, C: chain ends. Non-standard residues stand in square brackets, D forms with d. No end group written: not given here. *: point of attachment. Yde = (2S)-2-amino-3-[4-[2-(dimethylamino)ethoxy]phenyl]propanoic acid, CN(C)CCOc1ccc(C[C@H](N[*:1])C(=O)[*:2])cc1; Trp(7-Me) = Cc1cccc2c(C[C@H](N)C(=O)O)c[nH]c12; 2Nal = N[C@@H](Cc1ccc2ccccc2c1)C(=O)O; εLys = N[C@@H](CCCCN[*:1])C(=O)[*:2]; Palmitoyl = CCCCCCCCCCCCCCCC(=O)*; 3Pal = N[C@@H](Cc1cccnc1)C(=O)O; Dad = desamino-aspartamic acid; Lys(Me) = CNCCCC[C@H](N)C(=O)O; αMeL = CC(C)C[C@](C)(N)C(=O)O; αMeK = C[C@](N)(CCCCN)C(=O)O; NMeC = CN[C@@H](CS)C(=O)O; Thp = NC1(C(=O)O)CCOCC1; Aib = CC(C)(N)C(=O)O; Ava = NCCCCC(=O)O; Sar = CNCC(=O)O

B1: Compound of SEQ ID NO: 62 (peptide)
peptide: [Ava]CNT[Trp(7-Me)]QC[Yde][2Nal][Aib]EN[3Pal][Sar]-NH2
modifications: lactam N-11; disulfide 2-7
SMILES: Cc1cccc2c(C[C@@H]3NC(=O)[C@H]([C@@H](C)O)NC(=O)[C@H](CC(N)=O)NC(=O)[C@@H]4CSSC[C@H](NC(=O)[C@H](CCC(N)=O)NC3=O)C(=O)N[C@@H](Cc3ccc(OCCN(C)C)cc3)C(=O)N[C@@H](Cc3ccc5ccccc5c3)C(=O)NC(C)(C)C(=O)N[C@H](C(=O)N[C@@H](CC(N)=O)C(=O)N[C@@H](Cc3cccnc3)C(=O)N(C)CC(N)=O)CCC(=O)NCCCCC(=O)N4)c[nH]c12
B2: Compound of SEQ ID NO: 63 (peptide)
peptide: [Ava]CNT[Trp(7-Me)]QC[Yde][2Nal][αMeL]EN[3Pal][Sar]-NH2
modifications: lactam N-11; disulfide 2-7
SMILES: Cc1cccc2c(C[C@@H]3NC(=O)[C@H]([C@@H](C)O)NC(=O)[C@H](CC(N)=O)NC(=O)[C@@H]4CSSC[C@H](NC(=O)[C@H](CCC(N)=O)NC3=O)C(=O)N[C@@H](Cc3ccc(OCCN(C)C)cc3)C(=O)N[C@@H](Cc3ccc5ccccc5c3)C(=O)N[C@@](C)(CC(C)C)C(=O)N[C@H](C(=O)N[C@@H](CC(N)=O)C(=O)N[C@@H](Cc3cccnc3)C(=O)N(C)CC(N)=O)CCC(=O)NCCCCC(=O)N4)c[nH]c12
B3: Compound of SEQ ID NO: 64 (peptide)
peptide: [Ava]CNT[Trp(7-Me)]K(Ac)C[Yde][2Nal][Aib]EN[3Pal][Sar]-NH2
modifications: lactam N-11; disulfide 2-7
SMILES: CC(=O)NCCCC[C@@H]1NC(=O)[C@H](Cc2c[nH]c3c(C)cccc23)NC(=O)[C@H]([C@@H](C)O)NC(=O)[C@H](CC(N)=O)NC(=O)[C@@H]2CSSC[C@H](NC1=O)C(=O)N[C@@H](Cc1ccc(OCCN(C)C)cc1)C(=O)N[C@@H](Cc1ccc3ccccc3c1)C(=O)NC(C)(C)C(=O)N[C@H](C(=O)N[C@@H](CC(N)=O)C(=O)N[C@@H](Cc1cccnc1)C(=O)N(C)CC(N)=O)CCC(=O)NCCCCC(=O)N2
B4: Compound of SEQ ID NO: 66 (peptide)
peptide: [Ava]C[εLys](Ac)[Trp(7-Me)]K(Ac)C[Yde][2Nal][Thp]EN[3Pal][Sar]-NH2
modifications: lactam N-10; disulfide 2-6; also: Cys2 carboxyl joined to epsilon-NH2 of Lys3 (isopeptide bond), Lys3 alpha-N acetylated
B5: Compound of SEQ ID NO: 67 (peptide)
peptide: [Ava]C[εLys](Ac)[Trp(7-Me)]K(Ac)C[Yde][2Nal][αMeK](Palmitoyl)EN[3Pal][Sar]-NH2
modifications: lactam N-10; disulfide 2-6; also: Cys2 carboxyl joined to epsilon-NH2 of Lys3 (isopeptide bond), Lys3 alpha-N acetylated
B6: Compound of SEQ ID NO: 68 (peptide)
peptide: [Dad]C[εLys](Ac)[Trp(7-Me)]LC[Yde][2Nal][αMeL][Lys(Me)]N[3Pal][Sar]-NH2
modifications: lactam (positions not given here); disulfide 2-6; not fully specified (bridges); printed as Dad(§1)-C(§3)(@2)-K[aAc](@3)-Wim-L-C(@2)-Yde-Nal-Mle-Kme(§1)-N-Pal-Sar-NH2; also: Cys2 bonded to ε-NH2 of Lys3 (isopeptide backbone)
B7: Compound of SEQ ID NO: 69 (peptide)
peptide: [Dad][NMeC][εLys](Ac)[Trp(7-Me)]LC[Yde][2Nal][αMeL][Lys(Me)]N[3Pal][Sar]-NH2
modifications: lactam (positions not given here); disulfide 2-6; not fully specified (bridges); printed as Dad(§1)-Nmc(§3)(@2)-K[aAc](@3)-Wim-L-C(@2)-Yde-Nal-Mle-Kme(§1)-N-Pal-Sar-NH2; also: Nmc2 carboxyl joined to epsilon-NH2 of Lys3 (isopeptide bond), Lys3 alpha-N acetylated
B8: Compound of SEQ ID NO: 71 (peptide)
peptide: [Dad]CNT[Trp(7-Me)]QC[Yde][2Nal][Aib]KN[3Pal]K-NH2
modifications: lactam (positions not given here); disulfide 2-7; not fully specified (residue 14, bridges); printed as Dad(§1)-C(@2)-N-T-Wim-Q-C(@2)-Yde-Nal-Aib-K(§1)-N-Pal-K[Sema]-NH2
B9: Compound of SEQ ID NO: 72 (peptide)
peptide: [Ava]C[εLys](Ac)[Trp(7-Me)]K(Ac)C[Yde][2Nal][Aib]EN[3Pal][Sar]-NH2
modifications: lactam N-10; disulfide 2-6; also: Cys2 carboxyl joined to epsilon-NH2 of Lys3 (isopeptide bond), Lys3 alpha-N acetylated
B10: Compound of SEQ ID NO: 73 (peptide)
peptide: [Ava]C[εLys](Ac)[Trp(7-Me)]K(Ac)C[Yde][2Nal][αMeL]EN[3Pal][Sar]-NH2
modifications: lactam N-10; disulfide 2-6; also: Cys2 carboxyl joined to epsilon-NH2 of Lys3 (isopeptide bond), Lys3 alpha-N acetylated
B11: Compound of SEQ ID NO: 74 (peptide)
peptide: [Dad][NMeC]K[Trp(7-Me)]K(Ac)C[Yde][2Nal][Thp][Lys(Me)]N[3Pal][Sar]-NH2
modifications: lactam 1-10; disulfide 2-6; not fully specified (residue 3); printed as Dad(§1)-Nmc(§3)(@2)-K[aAc](@3)-Wim-K[Ac]-C(@2)-Yde-Nal-Thp-Kme(§1)-N-Pal-Sar-NH2; also: Nmc2 carbonyl joined by amide bond to epsilon-NH2 of Lys3 (branched isopeptide), Lys3 alpha-NH2 acetylated
B12: Compound of SEQ ID NO: 102 (peptide)
peptide: [Dad]CNT[Trp(7-Me)]K(Ac)C[Yde][2Nal][Thp]KN[3Pal][Sar]-NH2
modifications: lactam (positions not given here); disulfide 2-7; not fully specified (bridges); printed as Dad(§1)-C(@2)-N-T-Wim-K[Ac]-C(@2)-Yde-Nal-Thp-K(§1)-N-Pal-Sar-NH2
B13: Compound of SEQ ID NO: 103 (peptide)
peptide: [Dad]CNT[Trp(7-Me)]K(Ac)C[Yde][2Nal][αMeL]KN[3Pal][Sar]-NH2
modifications: lactam (positions not given here); disulfide 2-7; not fully specified (bridges); printed as Dad(§1)-C(@2)-N-T-Wim-K[Ac]-C(@2)-Yde-Nal-Mle-K(§1)-N-Pal-Sar-NH2
B14: Compound of SEQ ID NO: 104 (peptide)
peptide: [Dad]CK[Trp(7-Me)]K(Ac)C[Yde][2Nal][Aib]KN[3Pal][Sar]-NH2
modifications: lactam (positions not given here); disulfide 2-6; not fully specified (residue 3, bridges); printed as Dad(§1)-C(§3)(@2)-K[aAc](@3)-Wim-K[Ac]-C(@2)-Yde-Nal-Aib-K(§1)-N-Pal-Sar-NH2; also: K[aAc]: Cys2 bonded to epsilon-NH2 of acetylated Lys3, acetyl presumably on alpha-amine
B15: Compound of SEQ ID NO: 105 (peptide)
peptide: [Dad]CK[Trp(7-Me)]K(Ac)C[Yde][2Nal][Thp]KN[3Pal][Sar]-NH2
modifications: lactam (positions not given here); disulfide 2-6; not fully specified (residue 3, bridges); printed as Dad(§1)-C(§3)(@2)-K[aAc](@3)-Wim-K[Ac]-C(@2)-Yde-Nal-Thp-K(§1)-N-Pal-Sar-NH2; also: K[aAc]: Cys2 bonded to epsilon-NH2 of acetylated Lys3, acetyl presumably on alpha-amine
B16: Compound of SEQ ID NO: 106 (peptide)
peptide: [Dad]CK[Trp(7-Me)]K(Ac)C[Yde][2Nal][αMeL]KN[3Pal][Sar]-NH2
modifications: lactam (positions not given here); disulfide 2-6; not fully specified (residue 3, bridges); printed as Dad(§1)-C(§3)(@2)-K[aAc](@3)-Wim-K[Ac]-C(@2)-Yde-Nal-Mle-K(§1)-N-Pal-Sar-NH2; also: K[aAc]: Cys2 bonded to epsilon-NH2 of acetylated Lys3, acetyl presumably on alpha-amine
B17: Compound of SEQ ID NO: 8 (peptide)
peptide: [Ava]CNTWQC[Yde][2Nal][Aib]ENN-NH2
modifications: lactam (positions not given here); disulfide 2-7; not fully specified (bridges); printed as Apt(§1)-C(@2)-N-T-W-Q-C(@2)-Yde-Nal-Aib-E(§1)-N—N—NH2

What follows are binders tested against T1, IL-23 receptor on the surface of HEK-Blue IL-23 cells (UniProt Q5VWK5 24-629, limits assumed) (assay: cell-based or functional assay).
T1 sequence (looked up): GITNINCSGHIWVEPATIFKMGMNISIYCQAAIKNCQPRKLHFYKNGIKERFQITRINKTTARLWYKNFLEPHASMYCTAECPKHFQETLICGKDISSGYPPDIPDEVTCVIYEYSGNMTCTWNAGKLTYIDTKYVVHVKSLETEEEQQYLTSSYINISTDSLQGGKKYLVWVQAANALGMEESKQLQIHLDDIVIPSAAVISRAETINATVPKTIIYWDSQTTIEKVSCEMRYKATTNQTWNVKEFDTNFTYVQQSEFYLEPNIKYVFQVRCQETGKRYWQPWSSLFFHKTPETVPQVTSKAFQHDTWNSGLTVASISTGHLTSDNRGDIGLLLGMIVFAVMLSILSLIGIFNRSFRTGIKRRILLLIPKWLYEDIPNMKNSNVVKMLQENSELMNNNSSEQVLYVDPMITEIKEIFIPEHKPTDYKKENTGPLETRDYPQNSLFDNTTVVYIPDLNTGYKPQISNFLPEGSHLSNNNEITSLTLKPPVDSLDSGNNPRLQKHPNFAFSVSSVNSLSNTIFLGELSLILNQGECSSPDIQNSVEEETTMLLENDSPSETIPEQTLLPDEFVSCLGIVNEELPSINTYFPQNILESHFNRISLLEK

Question: How did the “pSTAT3 (nM)” value turn out when B1 was run?
Answer: The value was 0.2 nM.

Question: With B2 as the binder, how does the “pSTAT3 (nM)” value read?
Answer: Its value is 0.2 nM.

Question: With B3 as the binder, how does the “pSTAT3 (nM)” value read?
Answer: The value was 0.22 nM.

Question: Which “pSTAT3 (nM)” value does the source give for B4 here?
Answer: Its value is 0.15 nM.

Question: Which “pSTAT3 (nM)” value does the source give for B5 here?
Answer: Its value is 22.6 nM.

Question: With B6 as the binder, how does the “pSTAT3 (nM)” value read?
Answer: Its value is 2.69 nM.

Question: B7 was tested. Which “pSTAT3 (nM)” value did it give?
Answer: Its value is 3.07 nM.

Question: Which “pSTAT3 (nM)” value does the source give for XXKXLCXXXXAXX (Dad(§1)-Nmc(§3)(@2)-K[aAc](@3)-Wim-L-C(@2)-Yde-Nal-Mie-Kme(§1)-A-Pal-Sar-NH2) [Compound of SEQ ID NO: 70] here?
Answer: The value was 3.94 nM.

Question: B8 was tested. Which “pSTAT3 (nM)” value did it give?
Answer: Its value is 2.35 nM.

Question: For B9, which “pSTAT3 (nM)” value is on record?
Answer: Its value is 0.12 nM.

Question: For B10, which “pSTAT3 (nM)” value is on record?
Answer: The value was 0.1 nM.

Question: For B11, which “pSTAT3 (nM)” value is on record?
Answer: Its value is 0.12 nM.

Question: Which “pSTAT3 (nM)” value does the source give for B12 here?
Answer: Its value is 0.09 nM.

Question: With B13 as the binder, how does the “pSTAT3 (nM)” value read?
Answer: The value was 0.11 nM.

Question: With B14 as the binder, how does the “pSTAT3 (nM)” value read?
Answer: The value was 0.1 nM.

Question: With B15 as the binder, how does the “pSTAT3 (nM)” value read?
Answer: The value was 0.1 nM.

Question: B16 was tested. Which “pSTAT3 (nM)” value did it give?
Answer: Its value is 0.13 nM.

Question: With B17 as the binder, how does the “pSTAT3 (nM)” value read?
Answer: The value was 5.54 nM.
